Laboratory results reported in paper PMC2943609.

Experiments:
[1] = target: T1, CggR (Bacillus subtilis, UniProt O32253 1-340); assay: SEC and SAXS
[2] = target: T1, CggR; assay: SEC and SAXS; remark: listed apart in the source
[3] = target: T1, CggR; assay: two-photon FCCS

T1 sequence (O32253 whole entry): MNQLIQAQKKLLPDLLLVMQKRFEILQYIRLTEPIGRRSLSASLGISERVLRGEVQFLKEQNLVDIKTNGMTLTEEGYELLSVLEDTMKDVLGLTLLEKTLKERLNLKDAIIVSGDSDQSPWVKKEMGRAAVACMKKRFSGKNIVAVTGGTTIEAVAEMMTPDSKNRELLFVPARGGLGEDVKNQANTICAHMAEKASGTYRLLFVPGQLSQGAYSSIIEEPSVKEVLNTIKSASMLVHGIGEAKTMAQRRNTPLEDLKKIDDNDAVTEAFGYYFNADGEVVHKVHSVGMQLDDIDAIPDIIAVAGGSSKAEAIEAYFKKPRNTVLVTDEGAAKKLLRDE

B1: OR right half-operator, 23 bp (dsDNA)
DNA 1: TAGCGGGACATATAATGTCCAGC
DNA 2: GCTGGACATTATATGTCCCGCTA
[1]
  binding result: binds

B2: OLR full-length gapA operator, 45 bp (dsDNA)
DNA 1: TGACGGGACGTTTTTTGTCATAGCGGGACATATAATGTCCAGCAA
DNA 2: TTGCTGGACATTATATGTCCCGCTATGACAAAAAACGTCCCGTCA
[2]
  binding result: binds

B3: OR 23 bp, fluorescent (mix of two singly labelled duplexes) (dsDNA)
DNA 1: TAGCGGGACATATAATGTCCAGC
DNA 2: GCTGGACATTATATGTCCCGCTA
[3]
  binding result: binds
